{"source": "patent US7446182", "key": {"[1]": {"molecular_target": "Bacillus anthracis protective antigen (PA), 83 kDa polypeptide (Bacillus anthracis) (UniProt P13423)", "sequence (P13423 30-764 limits assumed)": "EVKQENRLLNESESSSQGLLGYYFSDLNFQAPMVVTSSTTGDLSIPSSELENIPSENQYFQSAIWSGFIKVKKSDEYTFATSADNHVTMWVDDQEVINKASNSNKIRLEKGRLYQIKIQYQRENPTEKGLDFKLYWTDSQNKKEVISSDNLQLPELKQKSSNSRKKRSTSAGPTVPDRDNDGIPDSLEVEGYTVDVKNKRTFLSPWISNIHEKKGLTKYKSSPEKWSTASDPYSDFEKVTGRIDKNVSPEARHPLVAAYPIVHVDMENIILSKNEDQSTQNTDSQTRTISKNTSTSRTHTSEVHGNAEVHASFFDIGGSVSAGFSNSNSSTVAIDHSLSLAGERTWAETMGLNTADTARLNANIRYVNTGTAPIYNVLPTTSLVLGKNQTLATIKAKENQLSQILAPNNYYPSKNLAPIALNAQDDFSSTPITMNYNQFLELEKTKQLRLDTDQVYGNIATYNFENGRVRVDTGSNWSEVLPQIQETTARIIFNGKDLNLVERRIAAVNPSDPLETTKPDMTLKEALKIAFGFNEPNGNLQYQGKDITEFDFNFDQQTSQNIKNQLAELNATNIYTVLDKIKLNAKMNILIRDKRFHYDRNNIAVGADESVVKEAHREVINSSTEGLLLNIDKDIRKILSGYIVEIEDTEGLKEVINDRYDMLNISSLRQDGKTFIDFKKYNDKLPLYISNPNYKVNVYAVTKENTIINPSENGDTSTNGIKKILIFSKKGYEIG", "test": "SPR, PA immobilized on CM5 chip"}, "[2]": {"molecular_target": "Bacillus anthracis protective antigen (PA), 83 kDa polypeptide (Bacillus anthracis) (UniProt P13423)", "test": "SPR, PA immobilized on CM5 chip", "remark": "listed apart in the source"}, "[3]": {"molecular_target": "Bacillus anthracis protective antigen (PA), 83 kDa polypeptide (Bacillus anthracis) (UniProt P13423)", "test": "SPR, PA immobilized on CM5 chip at low coupling density"}, "[4]": {"molecular_target": "Bacillus anthracis protective antigen (PA), 83 kDa polypeptide (Bacillus anthracis) (UniProt P13423)", "test": "ELISA on PA; scFv kept 2 h at 4 C before the titration"}}, "note": "Read-outs that look alike come from different tables or passages of the source.", "data": [{"substance": "14B7 Fab (papain digest of the 14B7 mouse IgG1)", "values": [{"measurement": "koff", "setting": "[1]", "result": 0.0035, "unit": "s⁻¹"}, {"measurement": "kon", "setting": "[1]", "result": 310000, "unit": "M⁻¹ s⁻¹"}, {"measurement": "Kd", "setting": "[2]", "result": 0.012, "unit": "µM"}, {"measurement": "koff", "setting": "[2]", "result": 0.0033, "unit": "s⁻¹"}, {"measurement": "kon", "setting": "[2]", "result": 300000, "unit": "M⁻¹ s⁻¹"}]}, {"substance": "14B7 monoclonal antibody (mouse IgG1 from hybridoma 14B7)", "values": [{"measurement": "Kd", "setting": "[3]", "result": 0.0023, "unit": "µM"}, {"measurement": "koff", "setting": "[2]", "result": 0.00135, "unit": "s⁻¹"}, {"measurement": "kon", "setting": "[2]", "result": 500000, "unit": "M⁻¹ s⁻¹"}]}, {"substance": "14B7 wild type scAb (scFv with a C-terminal human constant kappa domain)", "values": [{"measurement": "koff", "setting": "[2]", "result": 0.003, "unit": "s⁻¹"}, {"measurement": "kon", "setting": "[2]", "result": 290000, "unit": "M⁻¹ s⁻¹"}]}, {"substance": "14B7 wild type scFv", "values": [{"measurement": "EC50 (read off the curve)", "setting": "[4]", "result": 0.05, "unit": "µg/mL"}, {"measurement": "koff", "setting": "[1]", "result": 0.0035, "unit": "s⁻¹"}, {"measurement": "Kd", "setting": "[2]", "result": 0.012, "unit": "µM"}, {"measurement": "koff", "setting": "[2]", "result": 0.0032, "unit": "s⁻¹"}, {"measurement": "kon", "setting": "[2]", "result": 310000, "unit": "M⁻¹ s⁻¹"}]}]}
